Measurements as given in patent publication US9346889 (MEDIAPHARMA S R L, dated 2016).

Assays:
human ErbB3 receptor [1] = molecular target: T1, human ErbB3 receptor (human, UniProt P21860 20-1342); assay: hybridoma screening; reactivity with NIH/3T3 cells transfected with human ErbB3
T1 construct: whole, on cells; also called HER-3; HER3
Protocol: Four-weeks old Balb/c mice were immunized by intraperitoneal injection of live NIH/3T3 cells transfected with the human ErbB3 receptor. Seven days later, mice were given an additional intraperitoneal injection of the immunogen. After additional seven days, mice were boosted intravenously with the immunogen, and spleens were removed for cell fusion 3 days later. Somatic cell hybrids were prepared by fusion of immune splenocytes with the murine nonsecreting myeloma cell line NS-1. Hybridoma supernatants were selected on the basis of differential reactivity with LTR-ErbB3 transfected cells, but not with LTR-neo NIH/3T3. All positive hybridoma cell colonies were cloned twice by limiting dilution and further characterized.

human ErbB3 receptor [2] = molecular target: T1, human ErbB3 receptor; assay: immunofluorescence on IR-8 human melanoma cells, 10 ug/ml, on ice
human ErbB3 receptor [3] = molecular target: T1, human ErbB3 receptor; assay: immunofluorescence on IR-8 human melanoma cells
Protocol: IR-8 human melanoma cells were maintained on ice for 30 minutes in the presence of 10 µg/ml of chimeric (cMP-RM-1 #1) or humanized (hMP-RM-1 #6, hMP-RM-1 #10, hMP-RM-1 #20) MP-RM-1 antibody variants and then returned to 37° C. for 60 minutes. Cells were harvested and stained with a fluorescein-labeled goat anti-human IgG antibody and analyzed by FACS.

T1 sequence (P21860 20-1342): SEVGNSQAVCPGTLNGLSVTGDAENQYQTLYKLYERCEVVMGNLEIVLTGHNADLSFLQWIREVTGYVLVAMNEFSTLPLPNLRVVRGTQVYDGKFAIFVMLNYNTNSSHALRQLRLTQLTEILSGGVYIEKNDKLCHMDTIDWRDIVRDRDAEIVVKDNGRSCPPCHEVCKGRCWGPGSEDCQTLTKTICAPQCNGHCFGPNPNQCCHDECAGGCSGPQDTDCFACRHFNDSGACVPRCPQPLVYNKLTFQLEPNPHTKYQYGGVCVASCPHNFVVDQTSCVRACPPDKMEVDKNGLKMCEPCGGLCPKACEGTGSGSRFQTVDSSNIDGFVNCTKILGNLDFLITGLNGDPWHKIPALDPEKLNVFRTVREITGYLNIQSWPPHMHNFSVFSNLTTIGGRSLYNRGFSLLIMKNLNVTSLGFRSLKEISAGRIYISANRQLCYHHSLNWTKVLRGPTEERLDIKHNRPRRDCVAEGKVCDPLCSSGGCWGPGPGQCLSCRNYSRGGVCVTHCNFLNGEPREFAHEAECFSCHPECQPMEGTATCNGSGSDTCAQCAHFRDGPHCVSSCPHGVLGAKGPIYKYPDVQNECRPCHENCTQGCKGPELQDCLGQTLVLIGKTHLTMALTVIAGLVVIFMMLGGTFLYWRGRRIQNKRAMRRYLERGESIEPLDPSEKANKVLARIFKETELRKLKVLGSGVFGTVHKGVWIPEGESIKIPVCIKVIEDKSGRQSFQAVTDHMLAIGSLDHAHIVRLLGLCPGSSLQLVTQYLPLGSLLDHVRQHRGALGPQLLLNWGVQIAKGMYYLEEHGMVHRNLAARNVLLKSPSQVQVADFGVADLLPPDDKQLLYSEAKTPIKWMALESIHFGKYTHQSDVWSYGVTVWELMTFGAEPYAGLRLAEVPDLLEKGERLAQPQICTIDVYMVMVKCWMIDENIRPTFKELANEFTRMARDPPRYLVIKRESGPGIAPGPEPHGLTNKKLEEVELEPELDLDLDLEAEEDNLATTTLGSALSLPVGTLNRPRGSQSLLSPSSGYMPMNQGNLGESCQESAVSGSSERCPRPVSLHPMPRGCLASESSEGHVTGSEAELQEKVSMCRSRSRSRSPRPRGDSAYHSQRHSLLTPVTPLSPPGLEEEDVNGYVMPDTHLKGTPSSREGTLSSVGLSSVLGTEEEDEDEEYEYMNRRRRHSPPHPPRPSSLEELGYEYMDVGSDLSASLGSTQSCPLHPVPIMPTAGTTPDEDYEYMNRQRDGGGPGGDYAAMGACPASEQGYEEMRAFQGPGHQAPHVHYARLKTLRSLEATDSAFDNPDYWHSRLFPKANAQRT

Binder | binding result (human ErbB3 receptor [3]) | further results
monoclonal antibody MP-RM-1 (antibody, V domains shown, Murine IgG2a from hybridoma DSM ACC3018; also called DSM ACC3018) VH: DVQLVESGGDLVKPGGSLKLSCVVSGFTFSTYGMSWVRQTPDRRLEWVATISHGDGYTYYPDSVKGRFTISRDNAKNTLHLQMSSLKSEDTAMYYCARHGDYDDDYYAMDYWGQGTSVTVS VL: DIVMTQSPSSLTVIAGEKVTMSCKSSQSLLNSGNQKNYLTWYQQKPGQPPKLLIYWASTRESGVPDRFTGSGSGTDFTLTISSVQAEDLAVYYCQNEYTYPLTFGAGTKLELKR |  | binding result (human ErbB3 receptor [1]): binds
hMP-RM-1 #6 (antibody, human IgG1, kappa, V domains shown, Humanized IgG1/kappa, from CHO-S cells; also called humanized MP-RM-1 #6; humanized MP-RM-1#6) VH: DVQLVESGGGLVQPGGSLRLSCAASGFTFSTYGMSWVRQTPDKRLEWVATISHGDGYTYYPDSVKGRFTISRDNAKNTLYLQMSSLKSEDTAMYYCARHGDYDDDYYAMDYWGQGTLVTVSS VL: DIQMTQSPSSLSASVGDRVTITCKSSQSLLNSGNQKNYLTWYQQKPGKAPKLLIYWASTRESGVPSRFSGSGSGTDFTLTISSLQPEDFATYYCQNEYTYPLTFGQGTKVEIKR |  | binding result (human ErbB3 receptor [2]): binds
hMP-RM-1 #10 (antibody, human IgG1, kappa, V domains shown, Humanized IgG1/kappa, from CHO-S cells) VH: DVQLVESGGGLVQPGGSLRLSCAVSGFTFSTYGMSWVRQAPGKGLEWVATISHGDGYTYYPDSVKGRFTISRDNSKNTLYLQMNSLRAEDTAVYYCARHGDYDDDYYAMDYWGQGTLVTVSS VL: DIQMTQSPSSLSASVGDRVTITCKSSQSLLNSGNQKNYLTWYQQKPGKAPKLLIYWASTRESGVPSRFSGSGSGTDFTLTISSLQPEDFATYYCQNEYTYPLTFGQGTKVEIKR | binds | 
cMP-RM-1 #1 (antibody, human IgG1, kappa, V domains shown, Chimeric human IgG1/kappa, from CHO-S cells; Signal peptide left out; also called chimeric variant cMP-RM-1 #1) VH: DVQLVESGGDLVKPGGSLKLSCVVSGFTFSTYGMSWVRQTPDRRLEWVATISHGDGYTYYPDSVKGRFTISRDNAKNTLHLQMSSLKSEDTAMYYCARHGDYDDDYYAMDYWGQGTSVTFSS VL: DIVMTQSPSSLTVIAGEKVTMSCKSSQSLLNSGNQKNYLTWYQQKPGQPPKLLIYWASTRESGVPDRFTGSGSGTDFTLTISSVQAEDLAVYYCQNEYTYPLTFGAGTKLEIKR | binds | 
hMP-RM-1 #20 (antibody, human IgG1, kappa, V domains shown, Humanized IgG1/kappa, from CHO-S cells) VH: DVQLVESGGDLVKPGGSLKLSCVASGFTFSTYGMSWVRQTPDRRLEWVATISHGDGYTYYPDSVKGRFTISRDNAKNTLHLQMSSLKSEDTAMYYCARHGDYDDDYYAMDYWGQGTTVTVSS VL: DIVMTQSPSSLTVSLGERATMSCKSSQSLLNSGNQKNYLTWYQQKPGQPPKLLIYWASTRESGVPDRFSGSGSGTDFTLTISSVQAEDVAVYYCQNEYTYPLTFGGGTKLELKR | binds | 
